Measured values as given in paper PMC11438962.

Target: biotin-labeled HNRNPA1 peptide carrying R194 symmetric dimethylation (SDMA)
Test: BLI; Octet-RED96; biotinylated R194 SDMA HNRNPA1 peptide immobilised on streptavidin biosensors at 10 µg/mL; ZMYND11-MYND serially diluted three-fold from 333 nM in PBST; 300 s association, 300 s dissociation; 1:1 binding model

Kd: 3.5 nM
Substance: His-tagged recombinant MYND domain of ZMYND11 (domain or fragment)
